Laboratory results taken from patent publication US20200354457A1 (Hoffmann-La Roche, published 2020).
Where “and” joins values, the source holds several entries; their conditions need not be identical. Equal entries are not always repeated.

Legend:
[1] = molecular target: T1, biotinylated DR5-Fc-avi (extracellular domain of Death receptor 5, amino acids 1 to 152, fused to human IgG1 … (biotin on the C-terminal avi-tag)); experiment: ELISA, biotinylated DR5 antigen on neutravidin plates, bacterial supernatants, anti-Flag/HRP
T1 construct: also called DRS; Death receptor 5 ECD

[2] = molecular target: T2, Lag3 on Lag3+ NFAT Jurkat effector cells (Promega #CS194801); experiment: cell-based or functional assay
[3] = molecular target: T2, Lag3 on Lag3+ NFAT Jurkat effector …; experiment: cell-based or functional assay; remark: listed apart in the source
[4] = molecular target: T3, murine LAG3-Fc antigen (R&D Systems, 3328-L3-050) (murine, UniProt Q61790 24-442); experiment: ELISA using murine LAG3-Fc antigen
T3 construct: Bought reagent
T3 sequence (looked up): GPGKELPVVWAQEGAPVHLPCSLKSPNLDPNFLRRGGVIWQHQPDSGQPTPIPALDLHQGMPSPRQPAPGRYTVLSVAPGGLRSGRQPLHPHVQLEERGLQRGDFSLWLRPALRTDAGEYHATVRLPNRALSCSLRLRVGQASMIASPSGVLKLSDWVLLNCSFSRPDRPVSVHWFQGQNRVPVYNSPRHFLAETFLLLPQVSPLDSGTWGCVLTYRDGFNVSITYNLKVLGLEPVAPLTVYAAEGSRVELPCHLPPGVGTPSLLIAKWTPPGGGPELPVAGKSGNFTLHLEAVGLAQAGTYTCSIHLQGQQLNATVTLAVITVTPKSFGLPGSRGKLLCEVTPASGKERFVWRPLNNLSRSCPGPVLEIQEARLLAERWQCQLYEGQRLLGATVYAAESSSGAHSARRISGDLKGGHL

[5] = molecular target: T4, human LAG3 on recombinant CHO cells (human, UniProt P18627 23-525); experiment: cell ELISA on CHO cells expressing human LAG3;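 further: bivalent Fc-format binders titrated in threefold steps from 6 µg/mL, incubated with the cells 2 h at 4 °C, bound antibody detected by HRP-coupled anti-human IgG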
T4 construct: whole, on cells; also called Lag3 cells; recombinant CHO cells expressing Lag3
T4 sequence (looked up): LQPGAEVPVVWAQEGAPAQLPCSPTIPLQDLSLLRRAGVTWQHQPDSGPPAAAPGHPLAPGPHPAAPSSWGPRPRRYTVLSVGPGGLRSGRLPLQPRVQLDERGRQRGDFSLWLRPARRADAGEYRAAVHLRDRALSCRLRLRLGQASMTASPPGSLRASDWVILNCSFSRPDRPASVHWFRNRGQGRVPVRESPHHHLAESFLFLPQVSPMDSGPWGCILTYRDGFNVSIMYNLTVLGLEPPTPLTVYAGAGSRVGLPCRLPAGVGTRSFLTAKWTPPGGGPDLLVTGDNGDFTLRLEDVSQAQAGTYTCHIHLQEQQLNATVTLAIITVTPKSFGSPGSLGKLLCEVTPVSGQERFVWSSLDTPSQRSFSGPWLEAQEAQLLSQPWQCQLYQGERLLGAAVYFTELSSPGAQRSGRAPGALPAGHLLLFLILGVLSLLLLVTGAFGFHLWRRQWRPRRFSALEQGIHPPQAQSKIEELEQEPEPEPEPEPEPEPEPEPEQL

[6] = molecular target: T5, recombinant human LAG3 Fc Chimera Protein (R&D Systems, 2319-L3) (human, UniProt P18627 23-450); experiment: ELISA, plate coated with human LAG3 Fc chimera
T5 construct: Bought reagent
T5 sequence (looked up): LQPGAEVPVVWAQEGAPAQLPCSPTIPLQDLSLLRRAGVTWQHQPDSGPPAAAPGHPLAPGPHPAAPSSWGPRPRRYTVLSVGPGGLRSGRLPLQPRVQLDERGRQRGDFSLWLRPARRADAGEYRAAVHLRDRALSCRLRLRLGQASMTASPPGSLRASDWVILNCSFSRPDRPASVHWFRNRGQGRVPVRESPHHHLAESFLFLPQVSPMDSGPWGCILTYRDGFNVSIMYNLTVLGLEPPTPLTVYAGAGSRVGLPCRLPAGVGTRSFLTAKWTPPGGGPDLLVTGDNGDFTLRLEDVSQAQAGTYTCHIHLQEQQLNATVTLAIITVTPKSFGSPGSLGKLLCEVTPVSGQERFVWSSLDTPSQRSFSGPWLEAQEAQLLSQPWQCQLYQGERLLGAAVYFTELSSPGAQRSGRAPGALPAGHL

[7] = molecular target: T6, Lag3 on cynomolgus PBMC/T cells (cynomolgus); experiment: flow cytometry, non-activated cynomolgus PBMC, 10 µg/ml
T6 construct: whole, on cells

[8] = molecular target: T6, Lag3 on cynomolgus PBMC/T cells; experiment: flow cytometry, CD3/CD28-activated cynomolgus PBMC, 10 µg/ml
[9] = molecular target: T5, recombinant human LAG3 Fc Chimera …; experiment: SPR (Biacore), aVH-Fc captured by anti-human Fc, human LAG-3 Fc chimera as analyte, 25 C
[10] = molecular target: T7, soluble human Lag3-IgG1-Fc with biotinylated C-terminal Avi-tag (human, biotin on the C-terminal Avi-tag); experiment: A375 MHCII competition ELISA, biotinylated Lag3 250 ng/ml; competitor MHCII on A375 cells
T7 construct: also called LAG3-Fc-avi; biotinylated LAG3-Fc antigen

[11] = molecular target: T7, soluble human Lag3-IgG1-Fc with …; experiment: A375 MHCII competition ELISA at 3 µg/ml, biotinylated Lag3 250 ng/ml; competitor MHCII on A375 cells
[12] = molecular target: T8, biotinylated MCSP antigen (amino acids 1553 to 2184 of matured melanoma-associated chondroitin sulfate … (Homo sapiens (Human), UniProt Q6UVK1 1582-2213, limits assumed, biotin on the C-terminal avi-tag)); experiment: ELISA, biotinylated MCSP antigen on neutravidin plates, bacterial supernatants, anti-Flag/HRP
T8 construct: The entry may include the leader; also called recombinant MCSP
T8 sequence: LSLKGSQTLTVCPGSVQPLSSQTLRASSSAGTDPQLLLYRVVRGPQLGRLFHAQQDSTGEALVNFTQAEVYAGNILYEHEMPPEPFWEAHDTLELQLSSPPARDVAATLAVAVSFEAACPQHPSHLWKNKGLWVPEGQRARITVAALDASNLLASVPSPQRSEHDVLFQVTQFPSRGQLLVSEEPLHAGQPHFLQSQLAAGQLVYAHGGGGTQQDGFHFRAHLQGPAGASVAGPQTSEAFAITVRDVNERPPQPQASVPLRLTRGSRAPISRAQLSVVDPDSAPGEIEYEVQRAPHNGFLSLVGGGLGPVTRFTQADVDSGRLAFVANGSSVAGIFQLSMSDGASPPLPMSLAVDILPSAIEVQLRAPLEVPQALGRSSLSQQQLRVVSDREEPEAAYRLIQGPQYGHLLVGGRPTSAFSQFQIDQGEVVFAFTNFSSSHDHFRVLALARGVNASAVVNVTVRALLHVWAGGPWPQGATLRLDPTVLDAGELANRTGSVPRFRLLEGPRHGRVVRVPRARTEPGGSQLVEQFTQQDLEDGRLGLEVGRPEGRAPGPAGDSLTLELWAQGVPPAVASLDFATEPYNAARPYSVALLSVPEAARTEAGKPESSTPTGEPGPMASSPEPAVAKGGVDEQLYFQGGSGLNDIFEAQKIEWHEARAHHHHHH

B1: SEQ ID NO 24 (VHH)
VHH: EVQLVESGGGLVQPGGSLRLSCAASGFNIKDTYIGWVRRAPGKGEELVARIYPTNGYTRYADSVKGRFTISADTSKNTAYLQMNSLRAEDTAVYYCAKYYPRTYLDFDYWGQGTLVTVSS
notes: Tested as bacterial supernatant; the range 21-28 may alternate DNA and protein entries
binding result [1]: binds

B2: bivalent P21A03 aVH-Fc (Fc fusion)
chain: EVQLVESGGGLVQPGGSLRLSCAASGFNIKDTCIGWVRRAPGKGTELVAEICEDIGYTRYADSVKGRFTISADTSKNTAYLQMNSLRAEDTAVYYCAANEHSVGFNYWGQGTTVTVSSGGGGSGGGGSDKTHTCPPCPAPEAAGGPSVFLFPPKPKDTLMISRTPEVTCVVVDVSHEDPEVKFNWYVDGVEVHNAKTKPREEQYNSTYRVVSVLTVLHQDWLNGKEYKCKVSNKALGAPIEKTISKAKGQPREPQVYTLPPSRDELTKNQVSLTCLVKGFYPSDIAVEWESNGQPENNYKTTPPVLDSDGSFFLYSKLTVDKSRWQQGNVFSCSVMHEALHNHYTQKSLSLSPGK
EC50 of restoration of the NFAT luciferase signal (NFAT Lag3 reporter assay: Lag3+ Jurkat, Raji cells, SED) [2]: 3.31 µg/mL
IC50 for near-complete reduction of luciferase activity (modified NFAT Lag3 reporter assay, Lag3+ Jurkat cells alone) [3]: 0.078 µg/mL
binding result [4]: no binding
EC50 [5]: 0.0401 µg/mL and 0.5 nM
OD max [5]: 1.2 OD
EC50 [6]: 0.0901 µg/mL and 1.2 nM
OD max [6]: 1.8 OD
Percentage of Lag3 positive cells [7]: 20.8%
Percentage of Lag3 positive cells [8]: 52.2%
koff [9]: 1e-05 s⁻¹
t1/2 [9]: 19.3 h
IC50 [10]: 0.0581 µg/mL and 0.8 nM
% Inhibition [11]: 97.4%

B3: bivalent P9G1 aVH-Fc (Fc fusion)
chain: EVQLVESGGGLVQPGGSLRLSCAASGFNIKDTCIGWVRRAPGKGTELVAEICQDIGYTRYADSVKGRFTISADTSKNTAYLQMNSLRAEDTAVYYCAGEEGATNFKYWGQGTTVTVSSGGGGSGGGGSDKTHTCPPCPAPEAAGGPSVFLFPPKPKDTLMISRTPEVTCVVVDVSHEDPEVKFNWYVDGVEVHNAKTKPREEQYNSTYRVVSVLTVLHQDWLNGKEYKCKVSNKALGAPIEKTISKAKGQPREPQVYTLPPSRDELTKNQVSLTCLVKGFYPSDIAVEWESNGQPENNYKTTPPVLDSDGSFFLYSKLTVDKSRWQQGNVFSCSVMHEALHNHYTQKSLSLSPGK
EC50 of restoration of the NFAT luciferase signal (NFAT Lag3 reporter assay: Lag3+ Jurkat, Raji cells, SED) [2]: 0.65 µg/mL
IC50 for near-complete reduction of luciferase activity (modified NFAT Lag3 reporter assay, Lag3+ Jurkat cells alone) [3]: 0.038 µg/mL
binding result [4]: no binding
EC50 [5]: 0.0173 µg/mL and 0.2 nM
OD max [5]: 1.2 OD
EC50 [6]: 0.0132 µg/mL and 0.2 nM
OD max [6]: 1.9 OD
Percentage of Lag3 positive cells [7]: 24.4%
Percentage of Lag3 positive cells [8]: 54.1%
koff [9]: 2e-05 s⁻¹
t1/2 [9]: 9.82 h
IC50 [10]: 0.0408 µg/mL and 0.5 nM
% Inhibition [11]: 96.3%

B4: bivalent P10D1 aVH-Fc (Fc fusion)
chain: EVQLVESGGGLVQPGGSLRLSCAASGFSIKDTCIAWVRRAPGKGTELVAEICEDIGYTRYADSVKGRFTISADTSKNTAYLQMNSLRAEDTAVYYCAAKEAGVGFDYWGQGTTVTVSSGGGGSGGGGSDKTHTCPPCPAPEAAGGPSVFLFPPKPKDTLMISRTPEVTCVVVDVSHEDPEVKFNWYVDGVEVHNAKTKPREEQYNSTYRVVSVLTVLHQDWLNGKEYKCKVSNKALGAPIEKTISKAKGQPREPQVYTLPPSRDELTKNQVSLTCLVKGFYPSDIAVEWESNGQPENNYKTTPPVLDSDGSFFLYSKLTVDKSRWQQGNVFSCSVMHEALHNHYTQKSLSLSPGK
EC50 of restoration of the NFAT luciferase signal (NFAT Lag3 reporter assay: Lag3+ Jurkat, Raji cells, SED) [2]: 4.14 µg/mL
IC50 for near-complete reduction of luciferase activity (modified NFAT Lag3 reporter assay, Lag3+ Jurkat cells alone) [3]: 0.104 µg/mL
binding result [4]: no binding
EC50 [5]: 0.029 µg/mL and 0.4 nM
OD max [5]: 1.2 OD
EC50 [6]: 0.113 µg/mL and 1.5 nM
OD max [6]: 0.9 OD
Percentage of Lag3 positive cells [7]: 16.9%
Percentage of Lag3 positive cells [8]: 61.7%
koff [9]: 0.00011 s⁻¹
t1/2 [9]: 1.7 h
IC50 [10]: 0.0933 µg/mL and 1.2 nM
% Inhibition [11]: 93.4%

B5: SEQ ID NO 61 (VHH)
VHH: EVQLVESGGGLVQPGGSLRLSCAASSFNIKDTYIGWVRRAPGKGTELVAGIYCEAGITRYADSVKGRFTISCDTSKNTAYLQMNSLRAEDTAVYYCAGKGIGNYFDYWGQGTTVTVSS
notes: is one of clones 3, 25, 44, 57.1; also called MCSP-specific aVH
binding result [12]: binds

B6: SEQ ID NO 22 (VHH)
VHH: EVQLVESGGGLVQPGGSLRLSCAASGFNIKDTYIGWVRRAPGKGEELVARIYPTNGYTRYADSVKGRFTISADTSKNTAYLQMNSLRAEDTAVYYCAKYVRYFDYWGQGTLVTVSS
notes: as for B1
binding result [1]: binds

B7: SEQ ID NO 28 (VHH)
VHH: EVQLVESGGGLVQPGGSLRLSCAASGFNIKDTYIGWVRRAPGKGEELVARIYPTNGYTRYADSVKGRFTISADTSKNTAYLQMNSLRAEDTAVYYCAKRSHYSYFDYWGQGTLVTVSS
notes: as for B1
binding result [1]: binds

B8: SEQ ID NO 59 (VHH)
VHH: EVQLVESGGGLVQPGGSLRLSCAASSFNIKDTYIGWVRRAPGKGTELVADIYCSEGSTRYADSVKGRFTISCDTSKNTAYLQMNSLRAEDTAVYYCAAVSDYVVFYYWGQGTTVTVSS
notes: as for B5
binding result [12]: binds
